# Laboratory results: paper PMC7007523 (Proceedings of the National Academy of Sciences of the …, 2020)
# Non-standard residues stand in square brackets, D forms with d. No end group written: not given here. Hyp = O=C(O)[C@@H]1C[C@@H](O)CN1
# T1: GSO1/SGN3 ectodomain (SGN3^WT) - CIF peptide (Arabidopsis thaliana, UniProt C0LGQ5)
# T1 sequence (C0LGQ5 19-870): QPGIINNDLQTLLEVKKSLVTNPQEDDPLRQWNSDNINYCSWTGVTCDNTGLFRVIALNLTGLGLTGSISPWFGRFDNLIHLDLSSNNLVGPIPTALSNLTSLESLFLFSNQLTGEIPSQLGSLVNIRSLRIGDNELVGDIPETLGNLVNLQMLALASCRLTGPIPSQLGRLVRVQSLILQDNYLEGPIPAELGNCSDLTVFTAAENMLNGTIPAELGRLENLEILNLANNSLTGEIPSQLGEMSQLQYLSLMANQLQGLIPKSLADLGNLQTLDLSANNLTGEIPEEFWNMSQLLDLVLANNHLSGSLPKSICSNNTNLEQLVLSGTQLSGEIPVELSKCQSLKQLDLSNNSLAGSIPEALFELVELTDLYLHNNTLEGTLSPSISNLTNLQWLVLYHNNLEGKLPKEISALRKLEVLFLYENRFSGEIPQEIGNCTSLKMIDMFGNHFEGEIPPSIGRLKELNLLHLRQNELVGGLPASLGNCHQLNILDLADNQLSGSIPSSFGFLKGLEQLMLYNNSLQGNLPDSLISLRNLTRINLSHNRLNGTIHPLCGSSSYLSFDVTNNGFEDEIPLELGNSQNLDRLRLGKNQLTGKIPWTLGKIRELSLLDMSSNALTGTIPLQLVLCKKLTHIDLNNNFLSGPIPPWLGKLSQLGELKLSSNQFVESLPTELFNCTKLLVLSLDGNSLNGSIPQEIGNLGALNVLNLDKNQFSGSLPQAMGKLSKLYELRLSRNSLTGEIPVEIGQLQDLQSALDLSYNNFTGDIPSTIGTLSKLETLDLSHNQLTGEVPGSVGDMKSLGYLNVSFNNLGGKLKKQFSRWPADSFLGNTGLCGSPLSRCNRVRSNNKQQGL
# B1: SERK3 LRR ectodomain (receptor, Arabidopsis, UniProt Q94F62 26-225, looked up)
# chain: NAEGDALSALKNSLADPNKVLQSWDATLVTPCTWFHVTCNSDNSVTRVDLGNANLSGQLVMQLGQLPNLQYLELYSNNITGTIPEQLGNLTELVSLDLYLNNLSGPIPSTLGRLKKLRFLRLNNNSLSGEIPRSLTAVLTLQVLDLSNNPLTGDIPVNGSFSLFTPISFANTKLTPLPASPPPPISPTPPSPAGSNRITG
# B2: SERK1: recombinant LRR ectodomain of the SERK1 coreceptor kinase (residues 24 to 213) (protein)
# chain: ASANLEGDALHTLRVTLVDPNNVLQSWDPTLVNPCTWFHVTCNNENSVIRVDLGNAELSGHLVPELGVLKNLQYLELYSNNITGPIPSNLGNLTNLVSLDLYLNSFSGPIPESLGKLSKLRFLRLNNNSLTGSIPMSLTNITTLQVLDLSNNRLSGSVPDNGSFSLFTPISFANNLDLCGPVTSHPCPGS
# Key:
# [1] = molecular target: PEPR1 ectodomain (Arabidopsis) (UniProt Q9SSL9); assay: grating-coupled interferometry
# [2] = molecular target: BAM1 ectodomain (Arabidopsis) (UniProt O49545); assay: grating-coupled interferometry
# [3] = molecular target: GSO1/SGN3 ectodomain (residues 19 to 870) (Arabidopsis) (UniProt C0LGQ5); assay: ITC
# [4] = molecular target: GSO1/SGN3 ectodomain (residues 19 to 870) (Arabidopsis) (UniProt C0LGQ5); assay: grating-coupled interferometry
# [5] = molecular target: SGN3^3xmut ectodomain (Tyr416, Phe438 and Tyr440 replaced by alanine) (Arabidopsis) (UniProt C0LGQ5); assay: grating-coupled interferometry
# FLS2 = assay: GCI, SERK3 binding to FLS2; parameters: species or system Arabidopsis
# [6] = system: GSO1/SGN3 ectodomain (SGN3^WT) - CIF peptide; settings: CIF-dependent interaction
# [7] = molecular target: GSO2 in the presence of CIF3; assay: GCI coreceptor assay, SERK1 and SERK3 vs GSO2 in the presence of CIF3; parameters: species or system Arabidopsis; settings: read-out: Kd of SERK binding to GSO2
# EFR = assay: GCI, SERK3 binding to EFR; parameters: species or system Arabidopsis
# [8] = molecular target: FLS2 ectodomain (isolated) (Arabidopsis) (UniProt Q9FL28); assay: grating-coupled interferometry
# [9] = molecular target: GSO2 ectodomain (recombinant) (Arabidopsis) (UniProt Q9FIZ3); assay: grating-coupled interferometry
# GSO1/SGN3 = assay: Binding of CIF2^Hyp69,71 to GSO1/SGN3; parameters: species or system Arabidopsis; settings: SI Appendix, Fig. S6
# [10] = molecular target: FLS2 ectodomain (isolated) (Arabidopsis, UniProt Q9FL28 24-806); assay: grating-coupled interferometry
# [11] = molecular target: T1, GSO1/SGN3 ectodomain (SGN3^WT) - CIF peptide; settings: in the absence of CIF peptide
# Sequence of PEPR1 ectodomain (Arabidopsis) (Q9SSL9 29-769): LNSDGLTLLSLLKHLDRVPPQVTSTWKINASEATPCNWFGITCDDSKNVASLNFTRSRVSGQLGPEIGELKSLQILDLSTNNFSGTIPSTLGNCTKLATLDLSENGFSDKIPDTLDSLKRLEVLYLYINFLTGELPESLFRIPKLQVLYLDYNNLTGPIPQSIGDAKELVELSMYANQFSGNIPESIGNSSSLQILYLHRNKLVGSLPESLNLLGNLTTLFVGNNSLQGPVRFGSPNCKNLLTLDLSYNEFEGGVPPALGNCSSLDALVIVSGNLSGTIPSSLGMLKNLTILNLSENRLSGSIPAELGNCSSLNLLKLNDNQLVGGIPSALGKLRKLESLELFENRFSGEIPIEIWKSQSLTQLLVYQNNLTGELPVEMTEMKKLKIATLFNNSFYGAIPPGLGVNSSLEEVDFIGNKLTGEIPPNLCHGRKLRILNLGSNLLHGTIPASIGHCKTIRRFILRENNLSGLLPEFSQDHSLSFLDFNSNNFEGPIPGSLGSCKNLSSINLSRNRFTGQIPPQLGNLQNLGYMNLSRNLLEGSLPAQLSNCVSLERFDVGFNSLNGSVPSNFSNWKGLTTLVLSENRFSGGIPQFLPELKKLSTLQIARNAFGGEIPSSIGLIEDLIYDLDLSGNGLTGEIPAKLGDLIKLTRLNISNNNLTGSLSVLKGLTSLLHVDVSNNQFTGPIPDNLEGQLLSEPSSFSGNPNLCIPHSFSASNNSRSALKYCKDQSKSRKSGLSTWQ
# Sequence of FLS2 ectodomain (isolated) (Q9FL28 24-806): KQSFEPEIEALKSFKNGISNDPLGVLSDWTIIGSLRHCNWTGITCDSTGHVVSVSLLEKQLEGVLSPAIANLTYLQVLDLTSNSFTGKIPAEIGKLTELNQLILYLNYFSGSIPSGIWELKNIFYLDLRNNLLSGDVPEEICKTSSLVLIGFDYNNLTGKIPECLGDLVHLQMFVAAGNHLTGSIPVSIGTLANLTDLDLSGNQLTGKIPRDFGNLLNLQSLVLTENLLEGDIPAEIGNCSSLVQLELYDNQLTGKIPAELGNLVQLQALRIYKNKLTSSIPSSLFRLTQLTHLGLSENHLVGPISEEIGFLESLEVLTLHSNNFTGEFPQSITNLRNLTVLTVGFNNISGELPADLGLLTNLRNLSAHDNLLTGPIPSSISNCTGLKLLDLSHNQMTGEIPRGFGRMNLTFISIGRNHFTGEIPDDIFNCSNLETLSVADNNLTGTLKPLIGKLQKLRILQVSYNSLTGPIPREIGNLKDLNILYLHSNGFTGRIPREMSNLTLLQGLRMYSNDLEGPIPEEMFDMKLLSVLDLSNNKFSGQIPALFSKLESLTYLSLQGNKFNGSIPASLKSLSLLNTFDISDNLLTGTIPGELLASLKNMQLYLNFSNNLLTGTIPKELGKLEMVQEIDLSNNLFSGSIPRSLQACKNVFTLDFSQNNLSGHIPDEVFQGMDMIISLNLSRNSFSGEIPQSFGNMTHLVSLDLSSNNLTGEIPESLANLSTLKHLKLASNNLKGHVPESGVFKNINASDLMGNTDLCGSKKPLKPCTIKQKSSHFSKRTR
# Sequence of FLS2 ectodomain (isolated) (Arabidopsis) (Q9FL28 24-806): as above
# Sequence of BAM1 ectodomain (Arabidopsis) (O49545 20-640): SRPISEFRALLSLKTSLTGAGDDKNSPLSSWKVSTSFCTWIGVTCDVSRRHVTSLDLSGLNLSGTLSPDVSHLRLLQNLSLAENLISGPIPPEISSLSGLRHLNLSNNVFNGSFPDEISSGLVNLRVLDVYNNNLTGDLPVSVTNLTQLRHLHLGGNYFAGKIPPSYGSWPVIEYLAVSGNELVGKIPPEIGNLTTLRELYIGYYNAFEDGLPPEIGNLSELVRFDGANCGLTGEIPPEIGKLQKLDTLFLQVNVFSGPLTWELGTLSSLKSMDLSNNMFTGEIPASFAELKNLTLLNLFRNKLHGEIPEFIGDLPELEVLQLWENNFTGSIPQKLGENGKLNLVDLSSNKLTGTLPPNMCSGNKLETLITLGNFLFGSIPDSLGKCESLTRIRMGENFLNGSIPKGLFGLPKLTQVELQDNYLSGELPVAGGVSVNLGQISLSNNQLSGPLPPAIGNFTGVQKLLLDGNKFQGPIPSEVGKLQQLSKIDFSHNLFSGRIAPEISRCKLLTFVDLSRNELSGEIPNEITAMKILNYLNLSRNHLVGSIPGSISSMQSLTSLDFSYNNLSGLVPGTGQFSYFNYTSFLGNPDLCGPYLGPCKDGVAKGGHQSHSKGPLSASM
# Sequence of GSO2 ectodomain (recombinant) (Arabidopsis) (Q9FIZ3 23-876): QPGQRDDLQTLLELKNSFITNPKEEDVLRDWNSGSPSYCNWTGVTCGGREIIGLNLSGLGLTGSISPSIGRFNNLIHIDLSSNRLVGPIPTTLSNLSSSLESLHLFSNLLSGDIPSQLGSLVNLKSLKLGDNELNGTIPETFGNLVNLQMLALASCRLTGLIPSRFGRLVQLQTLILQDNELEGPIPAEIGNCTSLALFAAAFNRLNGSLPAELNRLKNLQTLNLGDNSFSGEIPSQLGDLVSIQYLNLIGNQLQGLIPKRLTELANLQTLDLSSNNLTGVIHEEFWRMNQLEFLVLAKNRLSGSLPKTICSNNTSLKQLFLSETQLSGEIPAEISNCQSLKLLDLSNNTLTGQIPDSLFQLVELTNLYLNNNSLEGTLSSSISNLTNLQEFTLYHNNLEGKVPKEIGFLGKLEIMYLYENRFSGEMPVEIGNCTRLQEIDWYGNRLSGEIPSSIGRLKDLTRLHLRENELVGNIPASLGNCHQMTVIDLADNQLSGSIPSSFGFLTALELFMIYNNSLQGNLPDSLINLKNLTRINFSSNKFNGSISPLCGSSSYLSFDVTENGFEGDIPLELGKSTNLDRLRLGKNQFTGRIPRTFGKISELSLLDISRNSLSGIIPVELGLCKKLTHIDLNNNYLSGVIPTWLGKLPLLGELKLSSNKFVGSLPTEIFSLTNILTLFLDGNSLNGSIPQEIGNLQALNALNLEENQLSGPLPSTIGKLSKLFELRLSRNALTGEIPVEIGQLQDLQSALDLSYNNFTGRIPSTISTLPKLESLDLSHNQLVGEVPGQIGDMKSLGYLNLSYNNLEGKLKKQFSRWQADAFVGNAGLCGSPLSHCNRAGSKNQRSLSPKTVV
molecule,measurement,setting,value
PEP1 danger signal peptide (23 amino acids),Kd,[1],0.1 µM
CLE9 peptide (12 amino acids),Kd,[2],0.001 µM
PEP2 danger signal peptide (23 amino acids) (from UniProt Q9LV88 74-109),Kd,[1],20 µM
"CIF2 peptide, synthetic sTyr-containing (CIF2^WT) (from UniProt O65684 29-83)",Kd,[3],0.04 µM
same,stoichiometry N,[3],1
same,Kd,[4],0.002 µM
same,fold reduction of CIF2 binding against wild-type GSO1/SGN3,[5],10 fold
SERK3: recombinant LRR ectodomain of the SERK3 coreceptor kinase,affinity of SERK3 binding,FLS2,low micromolar affinity
same,interaction of coreceptor candidate with GSO1/SGN3 in GCI assays,[6],interacts
same,Kd,[7],0.02 to 0.08 µM
same,affinity of SERK3 binding,EFR,low micromolar affinity
CIF4 peptide (wild type),Kd,[3],0.3 µM
same,stoichiometry N,[3],1
flg22 immune elicitor peptide,Kd,[8],1.5 µM
"CIF3 peptide, tyrosine sulfated (CIF3^WT)",Kd,[9],0.004 µM
same,Kd,[4],0.004 µM
"CIF2^Hyp69,71: CIF2 with hydroxyprolines at positions 69 and 71 (GRSSILIYSQEDDHPEVVERRIHEHERILRMNSRDYGHSS[Hyp]K[Hyp]KLVRPPFKLIPN)",dissociation constant compared with CIF2^WT,GSO1/SGN3,very similar dissociation constants
B1,binding result,[10],binds
B2,SERK1 binding to SGN3,[11],No SERK1 binding
same,Kd,[7],0.02 to 0.08 µM
